# Experimental data from patent US20250263697, “COMPOSITIONS AND METHODS OF MODULATING RNA AND PROTEIN INTERACTIONS” (The Regents of the University of California, published 2025).
# B1: Scov2_7431_7555_RNA (ssRNA)
# RNA: GGGCGAAAACGCCCCAUUUUAUUAUGUAUGGAAAAGUUAUGUGCAUGUUGUAGACGGUUGUAAUUCAUCAACUUGUAUGAUGUGUUACAAACGUAAUAGAGCAACAAGAGUCGAAUGUACAACUAUUGUUAAUGGUGUU
# Target: NSP12 (RNA-dependent RNA polymerase) (SARS-CoV-2, UniProt P0DTD1 P0DTD1:4393-5324)
# Experiment: FP
binder,measurement,value
B1,Kd,17 nM
